According to article doi:10.1101/2024.04.29.591313, “Discovery of a synthetic small molecule targeting the central regulator of Salmonella pathogenicity” (bioRxiv, 2024):

Biological target: the molecule itself
Test: SEC-MALS; Superdex 75 Increase 10/300 GL; HilD (100 μM) incubated with 1% (v/v) DMSO or C26 (100 µM) for 20 min at room temperature; SEC buffer (50 mM NaH2PO4, pH 7.0, 200 mM NaCl); 0.5 ml/min

B1: HilD (natural protein)
chain: MENVTFVSNSHQRPAADNLQKLKSLLTNTRQQIKSQTQQVTIKNLYVSSFTLVCFRSGKLTISNNHDTIYCDEPGMLVLKKEQVVNVTLEEVNGHMDFDILEIPTQRLGALYALIPNEQQTKMAVPTEKAQKIFYTPDFPARREVFEHLKTAFSCTKDTSKGCSNCNNKSCIENEELIPYFLLFLLTAFLRLPESYEIILSSAQITLKERVYNIISSSPSRQWKLTDVADHIFMSTSTLKRKLAEEGTSFSDIYLSARMNQAAKLLRIGNHNVNAVALKCGYDSTSYFIQCFKKYFKTTPSTFIKMANH
notes: HilD, transcriptional regulator of Salmonella enterica serovar Typhimurium; the hilD gene was cloned into pET-24a(+) with an N-terminal His6-SUMO fusion; Dimer by SEC-MALS; 9 (printed only as an image); also called HilDWT; recombinant HilD; source: E. coli C41(DE3), purified (Ni-NTA, SUMO protease cleavage, second Ni-NTA, SEC Superdex 75); not shown: His6, N-terminal, cleaved; SUMO, N-terminal, …
stoichiometry N: 2
